From patent CN107827984A (ZHANG HUILIN; ZHU JIN, dated 2018)

How the values were obtained:
[1] = target: T1, 重组人ROR1蛋白 (北京义翘神州, 产品编号13968-H08H) (human, UniProt Q01973 30-403); experiment: ELISA, ROR1 coated at 0.5 μg/mL, Fab from 200 μg/mL in 11 dilutions, goat anti-human Fab secondary, OD450
T1 construct: Bought protein; also called recombinant human ROR1 protein

[2] = target: ROR1天然抗原 (人卵巢癌细胞系A2780) (human) (UniProt Q01973); experiment: flow cytometry on A2780 cells, Fab at 30 μg/mL, FITC goat anti-human Fab secondary

T1 sequence (Q01973 30-403 limits assumed): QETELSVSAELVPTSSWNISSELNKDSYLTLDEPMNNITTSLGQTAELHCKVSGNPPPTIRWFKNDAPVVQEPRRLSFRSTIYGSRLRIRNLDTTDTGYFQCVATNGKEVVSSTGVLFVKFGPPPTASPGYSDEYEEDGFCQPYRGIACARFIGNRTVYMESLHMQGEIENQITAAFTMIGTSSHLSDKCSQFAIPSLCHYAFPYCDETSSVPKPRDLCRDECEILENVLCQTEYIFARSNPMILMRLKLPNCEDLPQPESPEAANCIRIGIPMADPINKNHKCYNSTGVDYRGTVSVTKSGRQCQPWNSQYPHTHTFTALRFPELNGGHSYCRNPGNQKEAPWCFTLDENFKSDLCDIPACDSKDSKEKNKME

binding result [1]: binds
结合率 [2]: 97.4%
B1: 嵌合抗ROR1抗体Fab分子 (Fab, V domains shown)
VH: EVQLVQSGGGLVQPKGSLKLSCAASGFTFNTYAMNWVRQAPGKGLEWVARIRSKSNNYATYYADSVKDRFTISRDDSQSMLYLQMNNLKTEDTAMYYCVSPAYYGNYVGFAYWGQGTLVTVSA
VL: ELVMTQSPTTMAASPGEKITFTCSASSSISSTYLHWFQQKPGFSPKLLIYRTSNLASGVPARFSGSGSGTSYSLTIGTMEAEDVATYYCQQGSSLPFTFGSGTKLEIKG
notes: Human-mouse chimeric Fab, L and Fd joined by an interchain disulfide; also called 抗ROR1抗体人鼠嵌合Fab分子; 抗ROR1抗体嵌合Fab分子
